Source: the supplement of paper PMC11246515
± gives the standard deviation of the averaged measurements.

Assay: total protein half-life in vivo (active degradation + dilution); higher = more stable protein
[1] = E. coli NCM3722 delta-clpP delta-lon delta-hslV, growth: N-lim chemostat, doubling time 6 h
[2] = E. coli NCM3722 delta-clpP, growth: N-lim chemostat, doubling time 6 h
[3] = E. coli NCM3722 delta-hslV, growth: N-lim chemostat, doubling time 6 h
[4] = E. coli NCM3722 delta-smpB, growth: N-lim chemostat, doubling time 6 h
[5] = wild type E. coli NCM3722, growth: C-lim chemostat, doubling time 3 h
[6] = wild type E. coli NCM3722, growth: C-lim chemostat, doubling time 6 h
[7] = wild type E. coli NCM3722, growth: C-lim chemostat, doubling time 12 h
[8] = wild type E. coli NCM3722, growth: N-lim chemostat, doubling time 12 h
[9] = wild type E. coli NCM3722, growth: P-lim chemostat, doubling time 12 h
[10] = E. coli NCM3722 delta-lon, growth: N-lim chemostat, doubling time 6 h
[11] = wild type E. coli NCM3722, growth: P-lim chemostat, doubling time 6 h
[12] = wild type E. coli NCM3722, growth: N-lim chemostat, doubling time 6 h

Sequence	total protein half-life in vivo [1]	total protein half-life in vivo [2]	total protein half-life in vivo [3]	total protein half-life in vivo [4]	total protein half-life in vivo [5]	total protein half-life in vivo [6]	total protein half-life in vivo [7]	total protein half-life in vivo [8]	total protein half-life in vivo [9]	total protein half-life in vivo [10]	total protein half-life in vivo [11]	total protein half-life in vivo [12]
MAIPKLQAYALPESHDIPQNKVDWAFEPQRAALLIHDMQDYFVSFWGENCPMMEQVIANIAALRDYCKQHNIPVYYTAQPKEQSDEDRALLNDMWGPGLTRSPEQQKVVDRLTPDADDTVLVKWRYSAFHRSPLEQMLKESGRNQLIITGVYAHIGCMTTATDAFMRDIKPFMVADALADFSRDEHLMSLKYVAGRSGRVVMTEELLPAPIPASKAALREVILPLLDESDEPFDDDNLIDYGLDSVRMMALAARWRKVHGDIDFVMLAKNPTIDAWWKLLSREVK [P0ADI4]	6.06 ± 2.3 h	2.48 h	1.47 h	1.73 ± 0.48 h	2.18 ± 0.18 h	3.32 ± 0.47 h	5.74 ± 0.72 h	4.49 h	5.51 h			
MNKEQSADDPSVDLIRVKNMLNSTISMSYPDVVIACIEHKVSLEAFRAIEAALVKHDNNMKDYSLVVD	> 8 h		> 8 h		2.94 ± 0.043 h		9.95 h	10.8 ± 6 h		> 8 h	4.21 h	
MIKFLSALILLLVTTAAQAERIRDLTSVQGVRQNSLIGYGLVVGLDGTGDQTTQTPFTTQTLNNMLSQLGITVPTGTNMQLKNVAAVMVTASLPPFGRQGQTIDVVVSSMGNAKSLRGGTLLMTPLKGVDSQVYALAQGNILVGGAGASAGGSSVQVNQLNGGRITNGAVIERELPSQFGVGNTLNLQLNDEDFSMAQQIADTINRVRGYGSATALDARTIQVRVPSGNSSQVRFLADIQNMQVNVTPQDAKVVINSRTGSVVMNREVTLDSCAVAQGNLSVTVNRQANVSQPDTPFGGGQTVVTPQTQIDLRQSGGSLQSVRSSASLNNVVRALNALGATPMDLMSILQSMQSAGCLRAKLEII [P0A6S3]					2.203 ± 0.022 h	4.68 h	8.58 ± 1.3 h					
MRNHRISLQDIATLAGVTKMTVSRYIRSPKKVAKETGERIAKIMEEINYIPNRAPGMLLNAQSYTLGILIPSFQNQLFADILAGIESVTSEHNYQTLIANYNYDRDSEEESVINLLSYNIDGIILSEKYHTIRTVKFLRSATIPVVELMDVQGERLDMEVGFDNRQAAFDMVCTMLEKRVRHKILYLGSKDDTRDEQRYQGYCDAMMLHNLSPLRMNPRAISSIHLGMQLMRDALSANPDLDGVFCTNDDIAMGALLLCRERNLAVPEQISIAGFHGLEIGRQMIPSLASVITPRFDIGRMAAQMLLSKIKNNDHNHNTVDLGYQIYHGNTL	6.39 ± 1.7 h				0.548 h		1.1 h					
MLKARNCGWIRLLPLFMLSLPVQAELRCVANAVDIESFFSAATAEDKQQVEQAINSSVNLVPFGLSASNWKVHRGDLVVEGNIESNQKLIVLGNLTVKGNISTFSLSNPWVILGNVTATNIVADSPLLITGSINASGLVFIDSYYDNPSTIKGSINARGIFINDIIAPVVASSTNSEFMVRASDKHDTENVKKALMIINPDAYYWGLINDEDALKEIFKRSNIRMAGNVCNQMKKEALFRPKPSPELVQELQMLDEGKVAAFEGRDIATFDLAVMRTLPRLKGISANLRKQLINSNDEQTIESMARYMPDNEILELTDQQLGYQPVVLGLLDREPLSVEIMTRMSRLPDGVGPLNLALRENLPLDIVMTLAKRDWDMIIQELYKDAWLLPESIIDGYIRSDDSSIRQVGAGGQLTYNQAMQLANDSSNNVVTSLAFKLAEMKHHGQLLRMTPQESDKVAGYLYQKFENDDDLIRVLFLALPDNLQFNFVKRMEKKSPAYFCCRDMQVIHSDAALQRLLTRFNDPEGWSNLAKNQYLSTSMKQKIWQRALSHRKNNPKADSDAYETSADMILSELISHGEVDDQMLLNATALIRSDDWDFLESALISWDNLPAVVLKELQQNTPRNDIWAKFFLRQENSSRAQVDEALRVYYALDPDALAQLDVLAKQPDRIWWSTLAKSNLTFFKFGALNNRHTPPAVLAAEIDPEWWIVAMNNPRFPVDVLKARLKRDPLLALELVNPELDLVRQLALNGKTRAIREQAMRKLDELY	> 8 h											
MPQRILVLGASGYIGQHLVRTLSQQGHQILAAARHVDRLAKLQLANVSCHKVDLSWPDNLPALLQDIDTVYFLVHSMGEGGDFIAQERQVALNVRDALREVPVKQLIFLSSLQAPPHEQSDHLRARQATADILREANVPVTELRAGIIVGAGSAAFEVMRDMVYNLPVLTPPRWVRSRTTPIALENLLHYLVALLDHPASEHRIFEAAGPEVLSYQQQFEHFMAVSGKRRWLIPIPLPTRWISVWFLNVITSVPPTTARALIQGLKHDLLADDTALRALIPQRLIAFDDAVRSTLKEEEKLVNSSDWGYDAQAFARWRPEYGYFAKQAGFTVKTSASLAALWQVVNQIGGKERYFFGNILWQTRALMDRAIGHKLAKGRPEREYLQTGDAVDSWKVIVVEPEKQLTLLFGMKAPGLGRLCFSLEDKGDYRTIDVRAFWHPHGMPGLFYWLLMIPAHLFIFRGMAKQIARLAEQSTD		6.7 ± 0.22 h	6.57 ± 0.8 h	6.11 ± 0.37 h	2.94 ± 0.081 h	5.88 ± 0.11 h	12.1 ± 2.1 h	11.8 ± 0.4 h	11.1 ± 0.83 h	6.64 ± 0.098 h	5.23 ± 0.016 h	6.42 ± 0.19 h
MLKPDNLPVTFGKNDVEIIARETLYRGFFSLDLYRFRHRLFNGQMSHEVRREIFERGHAAVLLPFDPVRDEVVLIEQIRIAAYDTSETPWLLEMVAGMIEEGESVEDVARREAIEEAGLIVKRTKPVLSFLASPGGTSERSSIMVGEVDATTASGIHGLADENEDIRVHVVSREQAYQWVEEGKIDNAASVIALQWLQLHHQALKNEWA [Q93K97]		4.47 ± 0.8 h	4.6 ± 0.65 h	4.63 ± 0.46 h	3.05 ± 0.36 h	5.79 ± 0.16 h	11 ± 0.82 h	7.1411 ± 0.0014 h	12.9 ± 0.41 h	4.759 ± 0.044 h	5.98 ± 0.42 h	4.23 ± 0.34 h
MKSPAPSRPQKMALIPACIFLCFAALSVQAEETPVTPQPPDILLGPLFNDVQNAKLFPDQKTFADAVPNSDPLMILADYRMQQNQSGFDLRHFVNVNFTLPKEGEKYVPPEGQSLREHIDGLWPVLTRSTENTEKWDSLLPLPEPYVVPGGRFREVYYWDSYFTMLGLAESGHWDKVADMVANFAHEIDTYGHIPNGNRSYYLSRSQPPFFALMVELLAQHEGDAALKQYLPQMQKEYAYWMDGVENLQAGQQEKRVVKLQDGTLLNRYWDDRDTPRPESWVEDIATAKSNPNRPATEIYRDLRSAAASGWDFSSRWMDNPQQLNTLRTTSIVPVDLNSLMFKMEKILARASKAAGDNAMANQYETLANARQKGIEKYLWNDQQGWYADYDLKSHKVRNQLTAAALFPLYVNAAAKDRANKMATATKTHLLQPGGLNTTSVKSGQQWDAPNGWAPLQWVATEGLQNYGQKEVAMDISWHFLTNVQHTYDREKKLVEKYDVSTTGTGGGGGEYPLQDGFGWTNGVTLKMLDLICPKEQPCDNVPATRPTVKSATTQPSTKEAQPTP	6.13 ± 0.28 h		7.29 ± 0.5 h	5.94 ± 0.87 h	3.51 ± 0.67 h	6.59 ± 0.25 h	11.2 ± 0.94 h	14.4 ± 0.85 h	14.4 ± 1.6 h	6.16 ± 0.95 h		6.28 ± 0.098 h
MKKALQVAMFSLFTVIGFNAQANEHHHETMSEAQPQVISATGVVKGIDLESKKITIHHDPIAAVNWPEMTMRFTITPQTKMSEIKTGDKVAFNFVQQGNLSLLQDIKVSQ		2.72 h	5.07 ± 1 h	4.22 h	2.8 h	4.69 h	6.31 ± 4.1 h	7.67 ± 1.3 h	7.41 ± 1.9 h	5.07 ± 0.12 h	4.39 ± 1 h	4.84 ± 0.35 h
MSQATSMRKRHRFNSRMTRIVLLISFIFFFGRFIYSSVGAWQHHQSKKEAQQSTLSVESPVQR	4.55 h	4.47 h	4.32 h	4.09 ± 0.36 h	1.7 ± 0.046 h	3.19 h	5.95 h	7.56 ± 0.76 h	4.32 ± 0.086 h	4.57 ± 0.97 h		3.526 ± 0.027 h
MPVLHNRISNDALKAKMLAESEPRTTISFYKYFHIADPKATRDALYQLFTALNVFGRVYLAHEGINAQISVPASNVETFRAQLYAFDPALEGLRLNIALDDDGKSFWVLRMKVRDRIVADGIDDPHFDASNVGEYLQAAEVNAMLDDPDALFIDMRNHYEYEVGHFENALEIPADTFREQLPKAVEMMQAHKDKKIVMYCTGGIRCEKASAWMKHNGFNKVWHIEGGIIEYARKAREQGLPVRFIGKNFVFDERMGERISDEIIAHCHQCGAPCDSHTNCKNDGCHLLFIQCPVCAEKYKGCCSEICCEESALPPEEQRRRRAGRENGNKIFNKSRGRLNTTLCIPDPTE	5.01 ± 0.67 h	0.746 ± 0.024 h	0.396 h	0.56 h	0.343 ± 0.0081 h	0.308 h	0.65 h	0.808 h	1.16 ± 1.1 h	0.483 h	0.402 ± 0.34 h	
MRIEVTIAKTSPLPAGAIDALAGELSRRIQYAFPDNEGHVSVRYAAANNLSVIGATKEDKQRISEILQETWESADDWFVSE [P0ABR1]	3.596 ± 0.025 h		2.28 h		0.937 ± 0.5 h			0.715 h	0.859 h	2.08 ± 0.25 h		
MLVVELIIVLLAIFLGARLGGIGIGFAGGLGVLVLAAIGVKPGNIPFDVISIIMAVIAAISAMQVAGGLDYLVHQTEKLLRRNPKYITILAPIVTYFLTIFAGTGNISLATLPVIAEVAKEQGVKPCRPLSTAVVSAQIAITASPISAAVVYMSSVMEGHGISYLHLLSVVIPSTLLAVLVMSFLVTMLFNSKLSDDPIYRKRLEEGLVELRGEKQIEIKSGAKTSVWLFLLGVVGVVIYAIINSPSMGLVEKPLMNTTNAILIIMLSVATLTTVICKVDTDNILNSSTFKAGMSACICILGVAWLGDTFVSNNIDWIKDTAGEVIQGHPWLLAVIFFFASALLYSQAATAKALMPMALALNVSPLTAVASFAAVSGLFILPTYPTLVAAVQMDDTGTTRIGKFVFNHPFFIPGTLGVALAVCFGFVLGSFML [P0ABN5]	5.71 h	6.38 ± 0.28 h		5.933 ± 0.026 h	> 4 h	6.25 h			12.4 ± 0.89 h		6.8 ± 0.54 h	
MKSNRQARHILGLDHKISNQRKIVTEGDKSSVVNNPTGRKRPAEK	1.25 ± 0.066 h	0.873 h	1.04 ± 0.075 h	0.657 h	1.64 ± 0.16 h	1.85 h	1.81 ± 0.55 h	1.74 ± 0.51 h	1.34 ± 0.98 h	1.37 ± 0.39 h	0.899 ± 0.2 h	1.08 h
MKKSILALSLLVGLSTAASSYAALPETVRIGTDTTYAPFSSKDAKGDFVGFDIDLGNEMCKRMQVKCTWVASDFDALIPSLKAKKIDAIISSLSITDKRQQEIAFSDKLYAADSRLIAAKGSPIQPTLDSLKGKHVGVLQGSTQEAYANETWRSKGVDVVAYANQDLVYSDLAAGRLDAALQDEVAASEGFLKQPAGKDFAFAGSSVKDKKYFGDGTGVGLRKDDAELTAAFNKALGELRQDGTYDKMAKKYFDFNVYGD	6.69 ± 0.15 h		6.37 ± 0.68 h	5.31 ± 0.11 h	3.22 ± 0.3 h	6.33 ± 0.92 h	11.58 ± 0.11 h	8.71 ± 0.59 h	11.4 ± 1.6 h	6.79 ± 0.077 h	5.98 ± 0.25 h	5.27 ± 0.47 h
MDFSIMVYAVIALVGVAIGWLFASYQHAQQKAEQLAEREEMVAELSAAKQQITQSEHWRAECELLNNEVRSLQSINTSLEADLREVTTRMEAAQQHADDKIRQMINSEQRLSEQFENLANRIFEHSNRRVDEQNRQSLNSLLSPLREQLDGFRRQVQDSFGKEAQERHTLTHEIRNLQQLNAQMAQEAINLTRALKGDNKTQGNWGEVVLTRVLEASGLREGYEYETQVSIENDARSRMQPDVIVRLPQGKDVVIDAKMTLVAYERYFNAEDDYTRESALQEHIASVRNHIRLLGRKDYQQLPGLRTLDYVLMFIPVEPAFLLALDRQPELITEALKNNIMLVSPTTLLVALRTIANLWRYEHQSRNAQQIADRASKLYDKMRLFIDDMSAIGQSLDKAQDNYRQAMKKLSSGRGNVLAQAEAFRGLGVEIKREINPDLAEQAVSQDEEYRLRSVPEQPNDEAYQRDDEYNQQSR [P0AG71]	6.83 ± 1.6 h	5.88 ± 0.096 h	4.5 ± 0.072 h	3.36 ± 0.004 h	2.76 ± 0.076 h	4.87 ± 0.12 h	7.51 ± 0.44 h	7.2 ± 1.9 h	7.03 ± 0.77 h	3.82 ± 0.52 h	4.59 ± 1.3 h	3.91 ± 0.74 h
